Test results from patent US20260022352A1, “COMPOSITIONS AND METHODS FOR PURIFYING […]” (North Carolina State University, priority 2023, published 2026).

Molecular target: VSV-G-pseudo-typed lentiviral vector particles (vesicular stomatitis virus) (UniProt P03522)
Chain of UniProt P03522 (P03522 17-511): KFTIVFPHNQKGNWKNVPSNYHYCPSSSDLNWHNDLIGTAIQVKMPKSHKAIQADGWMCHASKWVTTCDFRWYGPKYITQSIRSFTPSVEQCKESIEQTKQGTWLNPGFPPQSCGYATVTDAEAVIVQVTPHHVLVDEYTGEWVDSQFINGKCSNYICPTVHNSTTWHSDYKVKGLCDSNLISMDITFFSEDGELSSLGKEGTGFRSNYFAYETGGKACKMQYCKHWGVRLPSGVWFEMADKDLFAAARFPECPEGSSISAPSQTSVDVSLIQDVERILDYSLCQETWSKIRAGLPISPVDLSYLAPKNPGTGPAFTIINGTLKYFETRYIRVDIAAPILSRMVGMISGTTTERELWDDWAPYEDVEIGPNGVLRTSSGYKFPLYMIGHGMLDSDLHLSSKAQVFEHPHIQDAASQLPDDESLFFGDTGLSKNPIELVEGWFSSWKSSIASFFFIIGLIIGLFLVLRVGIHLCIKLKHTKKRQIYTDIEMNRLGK

Sequence | capacity | LVV adsorbed
FEKISAAE (peptide) | 5e+08 TU/mL | 
GKEAAFAA (peptide) |  | > 1e+09 TU/mL
